2 molecules from patent US20240228627A1, “GALECTIN-1-SPECIFIC MONOVALENT ANTIBODIES AND USES THEREOF” (INSTITUT NATIONAL DE LA RECHERCHE SCIENTIFIQUE, priority 2021, published 2024) can be followed below.

For assay [1], the target named is T1, GAL-1-Biotin (biotinylated human GAL-1) (Homo sapiens, UniProt P09382).
T1 construct: made in house; host or cells: E. coli BL21 (DE3), pET-22b(+)
Put plainly: non-adsorbed phage ELISA of VHH clones on GAL-1-Biotin. The note with it: HRP-conjugated anti-M13 antibody, TMB substrate; 282 clones tested. The class given is binding. The protocol: Generation and production of single chain camelid antibodies. Galectin-specific single chain (VHH) camelid antibodies were obtained following in vitro screening of a non-immune humanized synthetic single domain antibodies (hsd2Ab) library that contains more than 3×10^9 clones expressed at the surface of M13 phage [Moutel et al., 2016]. The panning was carried out against immobilized recombinant human galectin-1 devoid of carbohydrate in its glycan binding site (GBS). Prior to the phage display selection, galectin-1-biotin and GST-Biotin were bound to streptavidin magnetic beads (Dynabeads® M-280 Streptavidin, Life Technologies) with a 50 nM final concentration of biotinylated protein for the first round and 10 nM final concentration of biotinylated protein for the second and third rounds. […] Following three-rounds of phage display, clones were picked randomly and analyzed by non-adsorbed phage ELISA using HRP-conjugated anti-M13 antibody (GE Healthcare) and a colorimetric substrate (TMB, tetramethylbenzidine, Thermo Fischer).
Following an initial pre-screen round of phage display carried out with GST-biotin to deplete the library from unspecific binders, unbound VHHs were incubated with GAL-1-Biotin beads. […] A total of 282 VHHs were then picked and analyzed by ELISA for galectin-1 binders.
For orientation: In an ELISA, binding on a coated surface is turned into a signal by an enzyme label.

The target in assay [2] is T2, recombinant human GAL-1 (rhGAL-1) (Homo sapiens, UniProt P09382).
T2 construct: made in house; host or cells: E. coli BL21 (DE3), pET-22b(+)
Put plainly: inhibition of galectin-1-induced apoptosis of Jurkat T cells (annexin V/propidium iodide flow cytometry). The class given is cell-based. The note with it: rhGAL-1 2.25 μM, 4 h at 37° C., increasing concentrations of nanobody. As for the experimental part: Briefly, Jurkat T cells were incubated with recombinant human GAL-1 (rhGAL-1; 2.25 μM) for 4h at 37° C. in presence of increasing concentrations of G1N1 and G1N2. Apoptosis was measured by flow cytometry using conventional annexin V/propidium iodide staining. Results represent data recorded on 5000 cells. Errors bars represent standard deviation.
Jurkat T cells were incubated with increasing concentrations of G1N1 pre-incubated with rhGAL-1 (2.25 μM) for 4 h at 37° C., after which apoptosis was measured by flow cytometry using Annexin V/propidium iodide staining. 5000 events were recorded. Errors bars represent standard deviation.
Apoptosis of human T cells. In vitro apoptosis assays were carried out using the standard in vitro human Jurkat T cell model system, fluorescein isothiocyanate (FITC)-labeled annexin V (Biolegend, San Diego, CA, USA) and propidium iodide (PI). Briefly, recombinant galectin-1 was pre-incubated for 1 h at 4° C. in serum free RPMI 1640 medium before addition to Jurkat cells. The mixture was incubated at 37° C. for 4 h. Cells were then washed once in PBS and once in binding buffer (0.01 M HEPES, 0.14 M NaCl, 2.5 mM CaCl2, pH 7.4). For staining, cells were incubated for 15 min with FITC-labeled annexin V in the dark at room temperature. The PI (0.25 μg/mL) stain was added to cells just before analysis by flow cytometry.
In general terms: In flow cytometry, cells or beads pass a laser one at a time.

A further assay addresses T3, human galectin-13 (human, UniProt Q9UHV8 1-139).
T3 construct: Recombinant, made in E. coli; also called human GAL-13; Gal-13
T3 sequence: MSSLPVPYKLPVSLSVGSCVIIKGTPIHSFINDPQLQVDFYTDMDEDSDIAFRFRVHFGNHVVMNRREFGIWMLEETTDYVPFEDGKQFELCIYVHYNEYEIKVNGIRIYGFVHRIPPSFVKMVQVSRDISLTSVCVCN
As to the kind of experiment: ELISA, human galectin-13 immobilized at 1 µM, anti-His-tag detection [left panel (1 µM]. The protocol:
(§1) Briefly, human galectins were immobilized at 1 and 5 μM for 16 h at 4° C. After a blocking step with PBS containing 10% (v/v) BSA (blocking buffer), increasing concentrations of G1N1 were added to each well and incubated for 1 h at room T° C. […] The colorimetric assay was carried out with 3,3′,5,5′-tetramethylbenzidine (Sigma-Aldrich, ON, Canada) according to the manufacturers recommendations.
(§2) ELISA assays. Recombinant human galectins were immobilized in 96-well plates at the indicated concentrations for 16 h at 4° C. After a blocking step with PBS containing 10% (v/v) bovine serum albumin (BSA) (blocking buffer), increasing concentrations of G1N1 were added to each well and incubated for 1 h at room temperature. […] The colorimetric assay was carried out with TMB (Sigma-Aldrich, MO, USA) according to the manufacturer's recommendations.

For assay [3], the target named is T4, recombinant human galectin-1 (human, UniProt P09382 2-135).
T4 construct: Recombinant, made in E. coli BL21(DE3) from pET-22b(+); also called hGAL-1; GAL-1
As to the kind of experiment: microscale thermophoresis, Red-NHS labeled human GAL-1 (5 nM), G1N1 titrated; value in brackets is the 95% CI. The protocol: (§3) FIG. 9A: Red-NHS labeled human GAL-1 (5 nM) incubated with G1N1 or alpha-lactose (a-lactose). […] In the same experiment, no binding was detected at 10 μM for human GAL-7, mouse GAL-7, human GAL-8 and human GAL-13. All experiments were performed in 20 mM Tris-HCl 150 mM NaCl and 0.1% F127. Binding affinities (Kd values) were determined from the fitted curves (three parameter dose-response curve) obtained from data of at least 3 independent experiments. For each value, 95% confidence intervals (Cl) are indicated.
Background: In MST a laser heats a spot of the sample, and binding alters the fluorescence response.

The target in assay [4] is T4, recombinant human galectin-1. As to the kind of experiment: microscale thermophoresis, Red-NHS labeled G1N1 (2 nM), human galectin-1 titrated; value in brackets is the 95% CI. The protocol:
FIG. […] In the same experiment, no binding was detected at 10 μM for human GAL-7, mouse GAL-7, human GAL-8 and human GAL-13. All experiments were performed in 20 mM Tris-HCl 150 mM NaCl and 0.1% F127. Binding affinities (Kd values) were determined from the fitted curves (three parameter dose-response curve) obtained from data of at least 3 independent experiments. For each value, 95% confidence intervals (Cl) are indicated.

The target in the next assay is T5, human galectin-2 (human, UniProt P05162 1-132).
T5 construct: Recombinant, made in E. coli; also called Gal-2
T5 sequence: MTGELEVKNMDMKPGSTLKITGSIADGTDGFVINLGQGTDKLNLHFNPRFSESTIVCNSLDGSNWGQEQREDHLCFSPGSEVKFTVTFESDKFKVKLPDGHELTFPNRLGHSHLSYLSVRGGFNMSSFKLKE
Put plainly: ELISA, human galectin-2 immobilized at 1 µM, anti-His-tag detection [left panel (1 µM]. As for the experimental part:
as §1, §2

Assay [5] addresses T4, recombinant human galectin-1. Put plainly: microscale thermophoresis (MST), Red-NHS labeled human GAL-1 (5 nM) with G1N1 or alpha-lactose. As for the experimental part:
as §3

For assay [6], the target named is T6, recombinant mouse galectin-1 (mouse, UniProt P16045 2-135).
T6 construct: also called mGAL-1
Put plainly: microscale thermophoresis, Red-NHS labeled G1N1 (2 nM), mouse galectin-1 titrated; value in brackets is the 95% CI.

The next assay concerns the target T7, human galectin-7 (human, UniProt P47929 1-136).
T7 construct: Recombinant, made in E. coli; also called human GAL-7; Gal-7
As to the kind of experiment: ELISA, human galectin-7 immobilized at 1 µM, anti-His-tag detection [left panel (1 µM]. As for the experimental part: as §1, §2

A further assay has as its target T8, mouse galectin-7 (mouse, UniProt O54974 1-136, limits assumed).
T8 construct: also called mouse GAL-7
T8 sequence (looked up): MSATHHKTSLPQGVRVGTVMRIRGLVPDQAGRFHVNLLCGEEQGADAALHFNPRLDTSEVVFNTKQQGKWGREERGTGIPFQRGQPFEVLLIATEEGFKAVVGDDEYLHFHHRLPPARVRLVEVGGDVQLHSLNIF
Put plainly: microscale thermophoresis, Red-NHS labeled G1N1 (2 nM). As for the experimental part:
as §3

T4 sequence (P09382 2-135 limits assumed): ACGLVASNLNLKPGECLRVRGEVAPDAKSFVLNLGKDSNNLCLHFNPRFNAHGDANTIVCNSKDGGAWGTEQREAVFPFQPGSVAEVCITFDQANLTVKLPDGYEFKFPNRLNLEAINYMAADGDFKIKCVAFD
T6 sequence (P16045 2-135 limits assumed): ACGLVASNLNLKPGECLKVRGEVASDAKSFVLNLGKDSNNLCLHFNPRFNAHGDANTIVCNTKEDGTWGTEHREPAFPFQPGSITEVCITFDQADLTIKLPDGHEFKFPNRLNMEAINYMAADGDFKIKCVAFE
T7 sequence (P47929 whole entry): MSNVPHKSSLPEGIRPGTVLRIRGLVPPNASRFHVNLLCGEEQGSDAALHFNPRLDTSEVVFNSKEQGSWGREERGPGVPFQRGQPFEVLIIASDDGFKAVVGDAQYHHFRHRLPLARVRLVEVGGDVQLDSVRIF
T1 sequence (P09382 whole entry): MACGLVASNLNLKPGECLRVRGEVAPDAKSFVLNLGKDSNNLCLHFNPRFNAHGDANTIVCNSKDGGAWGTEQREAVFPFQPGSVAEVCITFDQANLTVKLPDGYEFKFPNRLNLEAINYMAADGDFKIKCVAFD
T2 sequence (P09382 whole entry): as above

B1: G1N2: galectin-1-specific single-domain VHH nanobody, SEQ ID NO:9; weak-binding second clone from phage display (protein)
VHH: MAEVQLQASGGGFVQPGGSLRLSCAASGSTYFHTAMGWFRQAPGKEREFVSAISGFANPHRYYASSVKGRFTISRDNSKNTVYLQMNSLRAEDTATYYCANLISTNRGWLMGYWCQGTQVTVSS
modifications: G1N2 VHH
As for B1, the “binding in phage ELISA in the presence of GAL-1-Biotin” value in assay [1] was “weak binding”. For the same molecule, the “inhibition of galectin-1-induced apoptosis of Jurkat T cells” value in [2] is on record as “not”.

B2: G1N1 nanobody (galectin-1-specific VHH, clone D06) (VHH)
VHH: EVQLQASGGGFVQPGGSLRLSCAASGSTFSEDAMGWFRQAPGKEREFVSAISGFANPHSYYADSVKGRFTISRDNSKNTVYLQMNSLRAEDTATYYCAASHKKTRAPAATFETYWGQGTQVTVSS
notes: From a synthetic humanized nanobody library (hsd2Ab); For apoptosis, MST and ELISA it was made in E. coli from pHEN2 with 6xHis and cMyc tags; also called GAL-1-specific Nb #1; lead VHH clone G1N1; not shown: 6xHis and cMyc tags from vector pHEN2
In the case of B2, the binding result with human galectin-13, in the assay with human galectin-2, with human galectin-7 and with mouse galectin-7 was “no binding (tested: 10 µM)” throughout. The Kd – broadly, the constant that tells how readily two partners part at equilibrium – in assay [3] is 87 nM; in assay [4], 750 nM; in assay [6], 24.6 nM. Further, in [5], the “fold higher affinity than lactose for galectin-1” value is approximately 200 fold.
